Source: the NTF2 design screens of Basanta et al. (2020)

Assay: protease stability score; higher = more stable; yeast display proteolysis, trypsin and chymotrypsin;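 note: log10 excess protease needed over predicted unfolded state with 0 meaning unfolded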

Row | Sequence | protease stability score
1 | DEENLQKIAHKVVRALHDGDPHQMHDLFDKDARISYGDKSVHGRNEISKAAHEREERVDDIDFKSFSVKNGHVEVDAKYDHNGQRREVIVQVEMHNGRIKSARFTKK | 0.2
2 | DEEHQHSLARTLATALRTGDPEKMKDLADKDVKVVVGDKHIKGRKDAKKWAKDWRDRYDHAQVDDVNVQGENVRIVMNVEVDGHNVVVVMTAIIDGDQVKNVKVTARNEEQEKKMKK | -0.268
3 | DEEQLKHVAEQLRRLWENNDENQIAQLMDENVEVQVGDKTLHGRDDVRKWAQDLRKSADHVKVHSIRNRGDKVQMDFVVENNGRQTKMEVIAHVHNGRIKSLKLRTK | 1.16
4 | DKEKEADQQVRTADEIYQTGNPEEAKKLADPNVDVRIGDKEYHGDRELAQIIVEKRERVDSLVFHVERINVHPGRFQLNVVLTLKHNGKHETKKEEFVMTKRNGQLRVVHMRDQ | 0.056
5 | DEQTAAKKANELAEAISTGDPERVMELADKDVKVVVGDKTYHGKEDLREMAKRFRDRVDHAQIDSVTNDGEHAKIHMRVEVNGHTVEIDLVIEARNGHAKHLQVDPDDQRKLEG | 0.919
6 | DEKALRQFEKFMEAIKNGDEEKVVQLVDPNATVRYGDKKVEGREQIKDQMKKLHEEMRIQVNSVDVEDHNGRAHVRIDVIQEHNGTPDRAQLRANMSASNGRIKDLEFTKTK | -0.148
7 | EENNLELAHRVMENIQTNNPDEVVKQLDPNARIQVGDKVYHGREQARKMVEDLIDRLRVQIDSVDLEVQGDKAQLEFTQIEEHNGRPNSAKFIVDVTVHNGRVQNMEFREHK | 0.891
8 | DEDQVLKVIEKALKAIQQGHREEAKKLGKPNVEVQAADQRDKGPDALLKMVEQVQKVGDKFEYKETRKKGGTVTTRVEVTFGGKTVEYEVNVQAEGGKVQKWEVRIDDDFIEQVKKS | 0.671
9 | DEDKHAQDHMDQLTRLRKHGNFEKLANMADEDVEVHYGDKQVHGREQVVKTIKSEADDVDHFDVKVQEYHVQGDHIHVVNEFTLERNGQYRTDEQQFTVQITNGSIRIKNMTKK | -0.475
10 | DEKDVKTAVKDFNTGSFDRFKDLADKDVTARIGNHTVKGHENFQHMMKNLKDRIDHFDVDSMTIKGNEAQMEYRFEINGHDIVVILRVDIHNGRIKHMEVEFRNEEQKKRFDDNQG | 0.945
11 | DHDQRRQAKEMVHAMTKGDEDRLRELLDENAKADVGDSKVHGRTQFLRELRTTMEQSQLRLDSFDVKVKDGRVRMRFSFVEDHNGRPNHKNAELQLRLDNGKVQEVRQRDDG | 0.539
12 | DDDQLRKFLEILRSGNEDDMERQADKDARARVGDDHYHGREEVAHMIRNFLHRADHIEVKSVRFTGEKAKVDMHAVVNGQELRLIIEAEVHNGTLKHIVMKVTDEEHKRTLERAMS | 0.29
13 | DHSDAEQVHRAIEENNFDELVDLADENVSVTIGDYTLHGREDFKHYQEVLKRQVDNVEFKTIDIQGDKIDRTVEATVNGRRYVARIVVKVKNGKIKSQKVHATDEKQNEQLRENLK | -0.043
14 | DEEHARELVENFKRNNWQEFEKMADKDVRAHVGDWNVHGRETFSRMMKHLVDQIDHISVDSVDVDEDTVEIHFSFDINGQDVTAVLRVELHNGKIKSMELDARDENARDVLRKVWR | 0.099
15 | DENVVKTAKNWFKAVQTGDTQEIHKNADPNARFQIGDKEYEGMEEYDKEQKERFEHMRVDYKDVTIRADGEHLHVKVKAKVNVNGQPHDVTFTIEARVDNGKFKEIVVKFDPDQQDRVEK | 0.338
16 | DDTRVKFALHLIKLEETGDEDKLRELMDPNAKISVGDKTYHGREEIVRELRRENHEMRVRIKQFRSTASGEKVRITMDAEFEHNGKPDRFELEVVFDFTNGRVKHIELHERR | 1.22
17 | DDERRKKQVDTFNKAFEKGDESQIRKLFDKDAKARVGDKHYHGKEQVARMVKTFVHQVDHMQFKSVRVQGDKVRADVTVKVNGNTARFTIEIRIHNGKIQHASIDPRNMEKMKR | -0.073
18 | DEHAMERIDDFFQALRNGDPKNLKEQIDPNVSLHYGDKEVTGKDRAAKEMAQIFRHIRLEFDIKSVSAHNGRVTVNAEVVDEENGRPHSRRVQNNAVWHNGVIQSFHVKETK | -0.402
19 | DEEQNKLADTAMEAWNHGDPDQMVKMLDPNARVRYGDKQFHGRTDVKKWMKRLNDQARMSVTHYKIRVKGEKALLTARLEFEINGQPFRRHVKVVFNNHNGKAKQVDWQFDQDKQRKIES | 0.152
20 | EDRHARRVANDFVRAVRKGDETRLKEQFDEDAEVQVGDTTYTGKERVVKHAQDFANSVDHLDVTDLKVNEDHASLSARVNINGRQDTIRIELRVHNGRLKRVNYDTQ | -0.032
21 | DEEKLREMMKKWQKVVQEKNTDEAKKLYHPNGEWENGSERDQGVEKVVKAIKTAQEKGFEFQIREVEVKGDKATMIYDLRNGDKTVTFHVEMEVDGGRVKRVRAKVSEEAKKLLTKG | 0.511
22 | DDDVVRKAHSFFRQYQRGNPDHLLKMMDPNARVRYGDKTYQGREDLKEILQHQLDRIRIRVKRMSLRAENGHLNVEVDEVLEHNGEPRRATADVKVTWRNGRIHEMQVVWRG | 0.27
23 | DEEDMQRFFKEFLKAQETGDPDEIRRQMDPNARAHVGDKEYHGREQVAKMFRDVRERVDRIRIESVDIQGNKANVDVTYNVNGRKARINVTLKAHNGRFKEMHFNPEDTKEMEK | 0.033
24 | DEDAERRMREQLKVFNRGNPDQMVKYMDKDARIEVGDTVVEGREDWRHEIDKQKKEAKYKIDVKRVDVDGDDLTIDATISVDHNGKPREKKLIVEAKLHNGKLKHARYDNRG | -0.05
25 | DDEANRVARHFVKALRKGDPDRLREMVDPNAKVVVGDQSWHGRDSLHHILEREIKEIRISIKDVKFQDQGDKANVEMRVESKHNGQPSESSSSVIVVVRNGRIQEIDMKTSG | 0.291

Row | Sequence | protease stability score
26 | DEHARHLVSELLRALESGDPDQLVKMADPNVEAQIGDKRYTGRSHMKKMQEDLKREMRYHVTDFHVEVNGNTAVADVDASVEHNGQPRRHRYRIVITFENGRAKDFSIQRDK | 1.12
27 | DEDEVKEVLKRIKSNDWHTLAKQADENARAVVGDKTYHGRTQMKKWMDKVRKRVDHIEISKVKQEGDKAVVDLVFQVNGVKVHLVIYIHVHNGKVVDVQAKARNEEELHKLKKAVS | 0.331
28 | DRRDLQLVERVLRALQTGDEDKVMENLDPNARVEYGDKEYHGREQLHEQIERDHRNMRFSIDVKRVDLHGDRAHFDATVTMNINGKPFEDRFHIDVVARNGRIKHLSMKMDPDRVKEVES | -0.157
29 | DHDALKRASQFLKAMEQGNEREAVRLVDENARVRYGDKQIHGNKQIRDWVRKMHEQARIRIEVTRVQATGDTVTVTAKVDVDVNGKPQTHDMVFRARVHNGHIKSAEFHFDEEFEKRMNS | 1.32
30 | DEEVLEEAKKRVETNDPQEFAHNVDENAEMTIGDKQYTGRDQFKHVADAWYERADKIEIKSYTTHNGKIHVNMRMRFDGRDIVFIVEFRVKNGRVQEYKFHVRDETAKTLQQQMLS | 0.231
31 | DPKKVEDVAKKVAKAFQDGNEEELKKHLDPTGRAKIADEETQGIEQIIKKLKKVMKLGVQVENKETRYEGNRVEFHTEYRDGDKQATMTVVYHADNGKVKEIRVQYDRDAKEMYEKG | 0.658
32 | DKEELQHLIRLEEHNDWDKFARQAPPNATLQVGDRVVHGREEAVKFAEKLKKRVDHISIESIDRRGEKLQIVYTMVVDGKRVKAVVVLRASNGRAQSVVFQARDPHDQQVIKENLS | 0.178
33 | DERNIERARKWWEALQENNPDQARKLMDKDVTFTYGDKTYHGREDIAKDIHRRLENMRVEIKSMTLEDHNGRVDAQVDLVVDVNGQPRQVTLDAKVNVENGRVKEFNVQFDEQLRHDIQK | 0.132
34 | DESDQDRFRKYLHQLQNGDEKKLRKNMDPNVKFEVGEKRYEGREEYAKKVRQEVEEMRFSFKIHDIEVHNGRVTVEFEVTYEHNGRPDHEHVRIEMEVHNGKIRSVRQESDK | 0.043
35 | DQHLEDVARQMQEVEKHNDPEEVSKQFDPNAHARYGDKEVHGHHQFKEQAKRRQTKAQFKVDKYSVSVDNGRVSMSRQYVNDHNGKPRTQTDTAHMEVHDGRITDVKYQSTS | -0.139
36 | DEDSEATEVAKTMHKNMKEGDPDKFMDQFDKDVRVQVGDKVYHGRDNALKWVREMLKRVDHVNFQVKRVRRQGDSVVLHLEVTLNQNGKHDKTTFVIHFTKQGDKFRADHLREQ | 1.86
37 | DEKQDKHYKKMMDEGDWKHFANNADPNARVDIGDKEYHGREQVNKALRRISEQADDFRVHDVQVENGRVRADVEFHVNGRSLKVDIRAVLHNGEVTHFHMSVTSEEVKQMLREIFD | 0.289
38 | DTEEREKVMEIMRTGDPDKLHKLMDKNVKVVVGDKRYHGREMVEELVQKLKSQIDHIEVKDYTIQGDNLILNAVINVDGRSVELVIFVRVHNGRIKHMNFNVTDEEEQKKLDENLS | 1.34
39 | DEEDIRRIVHEFNRAVQRGNPDDVVRLLDKHAKIVVGEFDVTGREDARKFAEQLRSMADHVTIKSMSVQGDKAHVVIVFDINGKKLTLTFEVQLHNGRVQNLHVDVRDEEEFSRNVG | 0.782
40 | DENVRRLVEHLIRAVQSNDPDKVVENLDPNASIHVGEKRYHGEDRAKDMYETEKNQMRVQVRLTQLHVQGNHAKLRETVLIDHNGRPVNVSLDMSLIAHNGRVHEIHETVPEENRKERKG | -0.029
41 | DEDTALTIAEQVMKAIQRGDEEEAEKLGKPDVEVQAFNERNKGQEMLKKAVEYVKKVGDQFEYKETRKEGNQVVTVVQVTRGGRTMEYKVDVKVEGGKVKLWRVEIPEEFAKVVEKS | 0.013
42 | DDRDLKRMADVLKTGDPDKLNENADKDAQVHVGNKRVHGREQFHEYQRRLREQIDHLHVKHIEITENKARIDYEFHVNGQKFSFTLTFQAHDGKLKRMSATFTSEEEEKRWDEIVD | 0.302
43 | DEEDQKRKANNVAENLINGNEDEARKYIDKDARVHVGDKTYRGREEARKVWHELRKKVDHLRVEHIDVQGDKVDVQAFFRHNGNQTNIQVHIRMENGHVKSISVDNR | -0.216
44 | DHEFAKDAKEVLEENDFEREKQLFDKDASAHIGNTTYHGHEHVQTAIDIRKKRIDHREFHSITIHGDKVDVDLIVQFNGRKIRFDLTIQVHNGRVKEIKFQATNPSQERQLDEIMS | 1.12
45 | DREERARQLLRELLKALETGDEDTAANQADPNVRVSVGDRTYHGREQYRTFLRKVAERVDHLEVRVDRVTQDNGQIHMDMTVRHEKNGRTHRKEFVIQIDVQGDKNRFVQMRHK | -0.163
46 | DEEALKNWEHQLRAHEQGDENRLKELADPNVRYRVGNHEIRGMQQRVEDASRVKEHMRVQMSIQEVEVRGDKFDATATAEYVVNGRPQQITYKFSFHAHNGKIKNLDVRLDEDQQRKLEK | 0.184
47 | DDELKRIVHQLMEALKHGDNDQWRKNVDPNVSVKIGDKELHGREEFARQIQRIKRELHLEIDIHDVKVKNGRADLDMTETRSENGQPETNRLRISYVIDNGKFKSVTLNIKQ | 0.222
48 | DEDLMTQIVKRYIDAWREGDRDELMKLADENVHIQVGDQTYHGQEQWRELVKKHKDNADHMDVKSWNIRGEKVHVHYWARFNGVEIEDTVEIQYENGRIIDIQFDPDQQRKEDK | 0.676
49 | DEESMHRMVTDLMHIIDSGNPDEAVKLADPNVQVTYGDRKYHGQDAVRDYIRELKKRVDTVNLKRVELSGEKATATAVFNVNGNRVDVEMTVTAQNGKIQSIDASVRDPDQKRKEKK | 0.8
50 | DDHKAQRAVDIAKNWLTGNEEELQKQASEEVRFDYGDKTVHGMTEARTQAKRFHERMRADAKVHSFDVTGDKAVVNMVFEQEHNGRPTNRRYRVILDLHNGKVKEVQIDDDG | -0.069
